Where two headings read alike, the source gives them in different places.
Experiments:
[1] = target: T1, wild-type human TIM-3 (hu TIM-3) (human, UniProt Q8TDQ0 22-200, limits assumed); assay: SPR (Biacore 4000), antibody captured via anti-human Fc
T1 construct: Soluble protein used for SPR; also called wild-type TIM-3

[2] = target: T2, T Cell Immunoglobulin and Mucin Domain-3 (TIM-3) on human blood cells (human, UniProt Q8TDQ0 22-301); assay: Flow cytometry on human whole blood, target occupancy on CD14+ monocytes, donor KP46318 (assigned by elimination of the other line styles). Unoccupied TIM-3 was detected with the competing anti-TIM-3 (2E2)-APC.
T2 construct: whole, on cells; also called TIM-3 on CD14+ monocytes; HAVCR2

[3] = target: T1, wild-type human TIM-3 (hu TIM-3); assay: SPR (Biacore 4000), antibody captured via anti-human Fc; remark: listed apart in the source
rhTIM-3-Fc AF647 = target: T3, rhTIM-3-Fc AF647 (human, UniProt Q8TDQ0 22-200, AF647 label); assay: flow cytometry; M6903 pre-incubated with rhTIM-3-Fc AF647, inhibition of its binding to PtdSer on apoptotic Jurkat cells
T3 construct: also called rhTIM-3 AF647; not shown: Fc part

[4] = target: T2, T Cell Immunoglobulin and Mucin …; assay: Flow cytometry on human whole blood, target occupancy on CD14+ monocytes, donor KP46315. Unoccupied TIM-3 was detected with the competing anti-TIM-3 (2E2)-APC.
[5] = target: T2, T Cell Immunoglobulin and Mucin …; assay: flow cytometry, target occupancy on CD14+ monocytes in human whole blood; unoccupied TIM-3 detected with the competing anti-TIM-3(2E2)-APC; average of 10 donors
[6] = target: T2, T Cell Immunoglobulin and Mucin …; assay: Flow cytometry on human whole blood, target occupancy on CD14+ monocytes, donor KP46231. Unoccupied TIM-3 was detected with the competing anti-TIM-3 (2E2)-APC.

Kd [1]: 6.2 nM
EC50 (read off the curve) [2]: ~0.07 µg/mL
Kd [3]: 5.7 nM
IC50 (rhTIM-3-Fc AF647): 4.44 nM
EC50 (read off the curve) [4]: ~0.07 µg/mL
EC50 [5]: 0.111 µg/mL
EC50 (read off the curve) [6]: ~0.07 µg/mL
B1: M6903 (anti-TIM3-3903E11(VL1.3,VH1.2)-IgG2h(FN-AQ,322A)-delK) (antibody, V domains shown)
VH: not shown
VL: QSALTQPRSVSGSPGQSVTISCTGTSSDVGGYNYVSWYQQHPGKAPKLMIYDVSKRPSGVPDRFSGSKSGNTASLTISGLQAEDEADYYCSSYADSVVFGGGTKVTVLG
notes: Anti-TIM-3 (A16-019-1), used in the target occupancy assay, is said to be identical to M6903 but produced in Expi293F instead of CHOK1SV cells; it is kept under this molecule; also called 3903E11 (VL1.3,VH1.2)-IgG2h(FN-AQ,322A)-delK antibody; anti-TIM-3 (A16-019-1)

Source: US20220073616A1 (Merck KGaA, published 2022)
